Reference: IntAct's records for PubMed 19955409

Target: rdx, Q9VFP2-2
Sequence (Q9VFP2 456-829): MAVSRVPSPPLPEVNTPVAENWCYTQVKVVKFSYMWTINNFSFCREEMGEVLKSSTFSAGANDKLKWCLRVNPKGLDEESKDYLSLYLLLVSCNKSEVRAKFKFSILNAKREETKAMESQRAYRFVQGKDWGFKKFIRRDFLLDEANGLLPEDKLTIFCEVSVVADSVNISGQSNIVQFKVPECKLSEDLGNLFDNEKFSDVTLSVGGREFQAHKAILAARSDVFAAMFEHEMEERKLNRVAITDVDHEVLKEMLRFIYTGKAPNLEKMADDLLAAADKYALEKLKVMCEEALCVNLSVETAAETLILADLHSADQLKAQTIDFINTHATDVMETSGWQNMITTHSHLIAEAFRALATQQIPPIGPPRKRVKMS

Row | effect of a mutation on the interaction | Substance
1 | disrupting interaction strength | Transcriptional activator cubitus interruptus (Drosophila melanogaster (Fruit fly)), P19538 S373D
2 | disrupting interaction strength | Transcriptional activator cubitus interruptus (Drosophila melanogaster (Fruit fly)), P19538 S372A
3 | disrupting interaction strength | Transcriptional activator cubitus interruptus (Drosophila melanogaster (Fruit fly)), P19538 S375A
4 | disrupting interaction strength | Transcriptional activator cubitus interruptus (Drosophila melanogaster (Fruit fly)), P19538 S373A
5 | disrupting interaction strength | Transcriptional activator cubitus interruptus (Drosophila melanogaster (Fruit fly)), P19538 S375D
6 | disrupting interaction strength | Transcriptional activator cubitus interruptus (Drosophila melanogaster (Fruit fly)), P19538 T374D
7 | disrupting interaction strength | Transcriptional activator cubitus interruptus (Drosophila melanogaster (Fruit fly)), P19538 T374A
8 | disrupting interaction strength | Transcriptional activator cubitus interruptus (Drosophila melanogaster (Fruit fly)), P19538 E369A
